Reference: paper doi:10.1101/2022.05.05.490853 (bioRxiv, 2022)
Read-outs that look alike come from different tables or passages of the source.

Experiments:
[1] = target: T1, recombinant VlsE protein (vlsE cassette region of B. burgdorferi B31-5A3) (Borreliella burgdorferi B31, clone …, UniProt O06878); experiment: ELISA
[2] = target: T1, recombinant VlsE protein (vlsE cassette …); experiment: ELISA; remark: listed apart in the source

B1: recombinant monoclonal antibody 17A8 (antibody, V domains shown)
VH: QSVEESGGRLVTPGTPLTLTCTVSGFPLSSYSMAWVRQAPGKGLEYIGFINTDGSAYYASWAKGRITISKTSTTVELKITSPTTEDTATYFCGTGNIWGPGTLVTVSS
VL: AQVLTQTPSSVSAAVGGTVTINCQASQSVSNNNVLAWFQQKPGQPPKRLIYSALTLDSGVPSRFKGSGSGTHFTLTISGVQCDDAATYYCAGGYDCSSNDCIAFGGGTEVVVK
binding result [1]: binds

B2: recombinant monoclonal antibody 28D3 (antibody, V domains shown)
VH: QSVEESGGRLVTPGTPLTLTCTVSGFSLSSYSMGWVRQAPGKGLEYIGMIISNNSTYYASWAKGRITISKTSTTVELKITSPTTEDTATYFCGTGNIWGPGTLVTVSS
VL: AQVLTQTPASVSAAVGGTVTINCQASQSTSNNNALAWFQQKPGQPPKRLIYSALTLDSGVPSRFKGSGSGTHFTLTISGVQCDDAATYYCAGGYDCSSNDCITFGGGTEVVVK
binding result [1]: binds

B3: antibody in the supernatant of B cell line 28D3 (antibody, V domains shown)
VH: QSVEESGGRLVTPGTPLTLTCTVSGFSLSSYSMGWVRQAPGKGLEYIGMIISNNSTYYASWAKGRITISKTSTTVELKITSPTTEDTATYFCGTGNIWGPGTLVTVSS
VL: AQVLTQTPASVSAAVGGTVTINCQASQSTSNNNALAWFQQKPGQPPKRLIYSALTLDSGVPSRFKGSGSGTHFTLTISGVQCDDAATYYCAGGYDCSSNDCITFGGGTEVVVK
binding result [2]: binds

B4: antibody in the supernatant of B cell line 17A8 (antibody, V domains shown)
VH: QSVEESGGRLVTPGTPLTLTCTVSGFPLSSYSMAWVRQAPGKGLEYIGFINTDGSAYYASWAKGRITISKTSTTVELKITSPTTEDTATYFCGTGNIWGPGTLVTVSS
VL: AQVLTQTPSSVSAAVGGTVTINCQASQSVSNNNVLAWFQQKPGQPPKRLIYSALTLDSGVPSRFKGSGSGTHFTLTISGVQCDDAATYYCAGGYDCSSNDCIAFGGGTEVVVK
binding result [2]: binds

B5: recombinant monoclonal antibody 15E2 (antibody, V domains shown)
VH: QSLEESGGGLFKPTDTLTLTCTVSGIDLSSYAMIWVRQAPGKGLEWIGYIWSSGRIWYASWAKGRFTISRTSTTVDLKLASPTTEDTATYFCARLWDIWGPGTLVTVSS
VL: AQVLTQTPSSVSAAVGGTVTISCQASQSLYNGVNLAWYQQKPGQPPKLLIFGASNLESGVSSRFRGSGSGTQFTLTISGVQCDDAATYYCLGEFSCSSADCLAFGGGTEVVVK
binding result [1]: binds

B6: antibody in the supernatant of B cell line 15E2 (antibody, V domains shown)
VH: QSLEESGGGLFKPTDTLTLTCTVSGIDLSSYAMIWVRQAPGKGLEWIGYIWSSGRIWYASWAKGRFTISRTSTTVDLKLASPTTEDTATYFCARLWDIWGPGTLVTVSS
VL: AQVLTQTPSSVSAAVGGTVTISCQASQSLYNGVNLAWYQQKPGQPPKLLIFGASNLESGVSSRFRGSGSGTQFTLTISGVQCDDAATYYCLGEFSCSSADCLAFGGGTEVVVK
binding result [2]: binds

B7: recombinant monoclonal antibody 1D11 (re-cloned, second most abundant VH and VL) (antibody, V domains shown)
VH: QSLVESGGGLVQPEGSLTLTCKASGFSFSSGYDMCWVRQAPGKGLEYIACIDAGDDITHYASWVKGRFTVSKTSSTTVTLQLNSLTVADTATYFCGRFWDLWGPGTLVTVSS
VL: SSVLTQTPSPVSAAVGGTVTINCQSSQSVYDSTWLGWYQQKPGQPPKLLIYKASNLASGVPSRFKGSGSGTHFTLTISDLECDDAATYYCVGGYSGSVDNWAFGGGTEVVVK
binding result [1]: binds

B8: antibody in the supernatant of B cell line 1D11 (antibody, V domains shown)
VH: QSLVESGGGLVQPEGSLTLTCKASGFSFSSGYDMCWVRQAPGKGLEYIACIDAGDDITHYASWVKGRFTVSKTSSTTVTLQLNSLTVADTATYFCGRFWDLWGPGTLVTVSS
VL: SSVLTQTPSPVSAAVGGTVTINCQSSQSVYDSTWLGWYQQKPGQPPKLLIYKASNLASGVPSRFKGSGSGTHFTLTISDLECDDAATYYCVGGYSGSVDNWAFGGGTEVVVK
binding result [2]: binds
